Measured values from PMC10141624.

Biological target: HA-T-AGM protein (recombinant soluble trimeric hemagglutinin of Influenza A/Guangdong-Maonan/SWL1536/2019 (H1N1) pdm09-like virus) (Influenza A/Guangdong-Maonan/SWL1536/2019 (H1N1) | not stated)
Test: SEC

**Q.** “HA-T-AGM protein (recombinant soluble trimeric hemagglutinin of Influenza A/Guangdong-Maonan/SWL1536/2019 (H1N1) pdm09-like virus)” was tested. Which stoichiometry N did it give?
**A.** 3
